Values of other authors, collected in publication PMC4048747.

Biological target: IGF-1R (UniProt P08069)
UniProt P08069, sequence (P08069 31-736, chain 1 of 2): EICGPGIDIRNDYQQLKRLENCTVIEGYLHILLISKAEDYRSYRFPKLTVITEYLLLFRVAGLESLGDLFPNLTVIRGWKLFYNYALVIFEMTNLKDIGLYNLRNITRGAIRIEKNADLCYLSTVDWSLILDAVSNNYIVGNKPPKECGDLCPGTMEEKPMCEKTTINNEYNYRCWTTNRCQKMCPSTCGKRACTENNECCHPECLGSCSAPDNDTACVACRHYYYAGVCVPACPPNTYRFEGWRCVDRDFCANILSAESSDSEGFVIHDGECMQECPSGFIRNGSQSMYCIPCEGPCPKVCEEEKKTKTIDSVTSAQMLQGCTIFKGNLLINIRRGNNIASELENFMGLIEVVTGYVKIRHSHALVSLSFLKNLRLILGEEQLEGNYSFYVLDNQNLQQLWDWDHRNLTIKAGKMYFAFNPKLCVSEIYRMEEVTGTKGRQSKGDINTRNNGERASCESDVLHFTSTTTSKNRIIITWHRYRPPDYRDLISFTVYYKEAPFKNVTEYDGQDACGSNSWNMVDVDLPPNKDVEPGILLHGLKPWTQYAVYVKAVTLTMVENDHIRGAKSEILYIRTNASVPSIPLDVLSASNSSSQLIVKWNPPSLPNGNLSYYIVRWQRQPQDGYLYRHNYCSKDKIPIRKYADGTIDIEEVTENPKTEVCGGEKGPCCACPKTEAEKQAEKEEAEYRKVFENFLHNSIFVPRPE
UniProt P08069, sequence (P08069 741-935, chain 2 of 2): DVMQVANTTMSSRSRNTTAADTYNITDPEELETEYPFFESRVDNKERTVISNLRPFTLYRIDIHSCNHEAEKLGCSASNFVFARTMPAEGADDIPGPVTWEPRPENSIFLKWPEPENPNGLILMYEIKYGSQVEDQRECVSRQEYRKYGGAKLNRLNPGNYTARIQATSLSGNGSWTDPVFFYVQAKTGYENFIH

Kd: 0.018 µM
Substance: Decorin (from UniProt P07585)
